Measurements as given in US20210403601A1 (FAPON BIOTECH, published 2021).

Target: T1, Taq DNA polymerase (Thermus aquaticus, UniProt P19821 1-832)
T1 construct: also called Taq enzyme; Taq DNA enzyme
Test: AMC sensor, antibody immobilised

T1 sequence (P19821 whole entry): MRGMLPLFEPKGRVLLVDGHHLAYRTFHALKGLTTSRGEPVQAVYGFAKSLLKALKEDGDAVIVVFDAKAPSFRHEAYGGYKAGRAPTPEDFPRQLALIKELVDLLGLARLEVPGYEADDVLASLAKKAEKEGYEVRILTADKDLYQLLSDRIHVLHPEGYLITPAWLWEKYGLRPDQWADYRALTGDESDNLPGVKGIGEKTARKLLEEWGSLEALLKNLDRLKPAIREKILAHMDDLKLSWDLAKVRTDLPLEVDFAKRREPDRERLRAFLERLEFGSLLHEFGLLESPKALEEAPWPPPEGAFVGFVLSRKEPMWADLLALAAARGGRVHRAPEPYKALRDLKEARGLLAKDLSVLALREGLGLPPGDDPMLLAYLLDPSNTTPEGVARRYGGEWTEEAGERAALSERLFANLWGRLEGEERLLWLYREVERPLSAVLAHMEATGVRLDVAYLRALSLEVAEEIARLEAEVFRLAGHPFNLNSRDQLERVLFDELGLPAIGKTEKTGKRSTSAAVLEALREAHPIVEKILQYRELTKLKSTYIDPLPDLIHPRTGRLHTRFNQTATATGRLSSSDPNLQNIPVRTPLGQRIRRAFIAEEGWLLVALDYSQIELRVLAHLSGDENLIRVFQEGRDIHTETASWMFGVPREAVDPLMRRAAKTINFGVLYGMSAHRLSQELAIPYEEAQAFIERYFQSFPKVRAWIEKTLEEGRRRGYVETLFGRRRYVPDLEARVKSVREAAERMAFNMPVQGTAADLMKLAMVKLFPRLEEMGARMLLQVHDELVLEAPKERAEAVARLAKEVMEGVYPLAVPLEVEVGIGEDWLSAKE

Binder | Kd | koff | kon
Mutation 1-33 (antibody, V domains shown, Mutation 1 background; CDRs built) VH: QVQLQQPGAELVKPGASVRLSCQTSVETFSTYYIYWVKQRPGEGLEWIGGINPTSGGPVFNEKFKSKATLTVDTSSSTAYMQLSSLTSVDSAVYYCTRSLLRRGYYFDYWGQGTALTVSS VL: DIQMTQTTSSLSASLGDRVTISCRASQDINNYLNWYQQKPDGTIKLLIYYTSRLQSGLPSRFSGSGSGTDYSLTIANLEQEDIATYFCQQDDTLPLTFGAGTKVELKR | 0.926 nM | 3.94e-05 s⁻¹ | 42600 M⁻¹ s⁻¹
Mutation 1-37 (antibody, V domains shown, Mutation 1 background; CDRs built) VH: QVQLQQPGAELVKPGASVRLSCQTSVETFTTYYIYWVKQRPGEGLEWIGGLNPTSNPVFNEKFKSKATLTVDTSSSTAYMQLSSLTSVDSAVYYCTRSIVRRGYYFDYWGQGTALTVSS VL: DIQMTQTTSSLSASLGDRVTISCRASQDINNYVNWYQQKPDGTIKLLIYYTSRLHSGIPSRFSGSGSGTDYSLTIANLEQEDIATYFCQQDDTIPITFGAGTKVELKR | 0.382 nM | 2.68e-05 s⁻¹ | 70200 M⁻¹ s⁻¹
Mutation 1-11 (antibody, V domains shown, Mutation 1 background; CDRs built) VH: QVQLQQPGAELVKPGASVRLSCQTSVNTFTTYYIYWVKQRPGEGLEWIGGLNPTSGGPVFNEKFKSKATLTVDTSSSTAYMQLSSLTSVDSAVYYCTRSIIRRGYYFDYWGQGTALTVSS VL: DIQMTQTTSSLSASLGDRVTISCRASQDINNYINWYQQKPDGTIKLLIYYTSRLQSGLPSRFSGSGSGTDYSLTIANLEQEDIATYFCQQDDTIPLTFGAGTKVELKR | 0.613 nM | 3.06e-05 s⁻¹ | 50000 M⁻¹ s⁻¹
Mutation 1-9 (antibody, V domains shown, Mutation 1 background; CDRs built) VH: QVQLQQPGAELVKPGASVRLSCQTSVETFTTYYIYWVKQRPGEGLEWIGGVNPTSGGPVFNEKFKSKATLTVDTSSSTAYMQLSSLTSVDSAVYYCTRSILRRGYYFDYWGQGTALTVSS VL: DIQMTQTTSSLSASLGDRVTISCRASQDINNYLNWYQQKPDGTIKLLIYYTSRLQSGIPSRFSGSGSGTDYSLTIANLEQEDIATYFCQQDDTIPVTFGAGTKVELKR | 0.926 nM | 7.28e-05 s⁻¹ | 78600 M⁻¹ s⁻¹
Mutation 1-7 (antibody, V domains shown, Mutation 1 background; CDRs built) VH: QVQLQQPGAELVKPGASVRLSCQTSVDTFTTYYIYWVKQRPGEGLEWIGGINPTSNPVFNEKFKSKATLTVDTSSSTAYMQLSSLTSVDSAVYYCTRSLVRRGYYFDYWGQGTALTVSS VL: DIQMTQTTSSLSASLGDRVTISCRASQDINNYVNWYQQKPDGTIKLLIYYTSRLNSGVPSRFSGSGSGTDYSLTIANLEQEDIATYFCQQDDTLPITFGAGTKVELKR | 0.599 nM | 2.45e-05 s⁻¹ | 41000 M⁻¹ s⁻¹
Mutation 1-35 (antibody, V domains shown, Mutation 1 background; CDRs built) VH: QVQLQQPGAELVKPGASVRLSCQTSVDTFTTYYIYWVKQRPGEGLEWIGGVNPTSNPVFNEKFKSKATLTVDTSSSTAYMQLSSLTSVDSAVYYCTRSLIRRGYYFDYWGQGTALTVSS VL: DIQMTQTTSSLSASLGDRVTISCRASQDINNYINWYQQKPDGTIKLLIYYTSRLNSGLPSRFSGSGSGTDYSLTIANLEQEDIATYFCQQDDTLPVTFGAGTKVELKR | 0.706 nM | 3.7e-05 s⁻¹ | 52400 M⁻¹ s⁻¹
Mutation 1-38 (antibody, V domains shown, Mutation 1 background; CDRs built) VH: QVQLQQPGAELVKPGASVRLSCQTSVNTFSTYYIYWVKQRPGEGLEWIGGVNPTSGGPVFNEKFKSKATLTVDTSSSTAYMQLSSLTSVDSAVYYCTRSIIRRGYYFDYWGQGTALTVSS VL: DIQMTQTTSSLSASLGDRVTISCRASQDIQNYLNWYQQKPDGTIKLLIYYTSRLNSGIPSRFSGSGSGTDYSLTIANLEQEDIATYFCQQDDTIPLTFGAGTKVELKR | 0.106 nM | 3.32e-06 s⁻¹ | 31400 M⁻¹ s⁻¹
Mutation 1-8 (antibody, V domains shown, Mutation 1 background; CDRs built) VH: QVQLQQPGAELVKPGASVRLSCQTSVETFSTYYIYWVKQRPGEGLEWIGGLNPTSNPVFNEKFKSKATLTVDTSSSTAYMQLSSLTSVDSAVYYCTRSLIRRGYYFDYWGQGTALTVSS VL: DIQMTQTTSSLSASLGDRVTISCRASQDIQNYLNWYQQKPDGTIKLLIYYTSRLNSGLPSRFSGSGSGTDYSLTIANLEQEDIATYFCQQDDTLPLTFGAGTKVELKR | 0.0343 nM | 1.64e-06 s⁻¹ | 47600 M⁻¹ s⁻¹
Mutation 1-3 (antibody, V domains shown, Mutation 1 background; CDRs built) VH: QVQLQQPGAELVKPGASVRLSCQTSVETFTTYYIYWVKQRPGEGLEWIGGVNPTSGGPVFNEKFKSKATLTVDTSSSTAYMQLSSLTSVDSAVYYCTRSVLRRGYYFDYWGQGTALTVSS VL: DIQMTQTTSSLSASLGDRVTISCRASQDINNYLNWYQQKPDGTIKLLIYYTSRLHSGIPSRFSGSGSGTDYSLTIANLEQEDIATYFCQQDDTVPVTFGAGTKVELKR | 0.367 nM | 1.54e-05 s⁻¹ | 42000 M⁻¹ s⁻¹

The remaining lines, values ahead:

Kd | koff | kon | Binder
0.384 nM | 3.77e-05 s⁻¹ | 98300 M⁻¹ s⁻¹ | Mutation 1-51 (antibody, V domains shown, Mutation 1 background; CDRs built) VH: QVQLQQPGAELVKPGASVRLSCQTSVNTFTTYYIYWVKQRPGEGLEWIGGINPTSGGPVFNEKFKSKATLTVDTSSSTAYMQLSSLTSVDSAVYYCTRSLLRRGYYFDYWGQGTALTVSS VL: DIQMTQTTSSLSASLGDRVTISCRASQDINNYLNWYQQKPDGTIKLLIYYTSRLHSGVPSRFSGSGSGTDYSLTIANLEQEDIATYFCQQDDTLPLTFGAGTKVELKR
0.198 nM | 1.71e-05 s⁻¹ | 86100 M⁻¹ s⁻¹ | Mutation 1-49 (antibody, V domains shown, Mutation 1 background; CDRs built) VH: QVQLQQPGAELVKPGASVRLSCQTSVETFTTYYIYWVKQRPGEGLEWIGGLNPTSNPVFNEKFKSKATLTVDTSSSTAYMQLSSLTSVDSAVYYCTRSVVRRGYYFDYWGQGTALTVSS VL: DIQMTQTTSSLSASLGDRVTISCRASQDINNYVNWYQQKPDGTIKLLIYYTSRLQSGIPSRFSGSGSGTDYSLTIANLEQEDIATYFCQQDDTVPITFGAGTKVELKR
0.178 nM | 1.34e-05 s⁻¹ | 75000 M⁻¹ s⁻¹ | Mutation 1-58 (antibody, V domains shown, Mutation 1 background; CDRs built) VH: QVQLQQPGAELVKPGASVRLSCQTSVETFTTYYIYWVKQRPGEGLEWIGGINPTSNPVFNEKFKSKATLTVDTSSSTAYMQLSSLTSVDSAVYYCTRSVVRRGYYFDYWGQGTALTVSS VL: DIQMTQTTSSLSASLGDRVTISCRASQDIQNYINWYQQKPDGTIKLLIYYTSRLQSGIPSRFSGSGSGTDYSLTIANLEQEDIATYFCQQDDTVPITFGAGTKVELKR
0.173 nM | 1.12e-05 s⁻¹ | 64400 M⁻¹ s⁻¹ | Mutation 1-55 (antibody, V domains shown, Mutation 1 background; CDRs built) VH: QVQLQQPGAELVKPGASVRLSCQTSVDTFSTYYIYWVKQRPGEGLEWIGGVNPTSGGPVFNEKFKSKATLTVDTSSSTAYMQLSSLTSVDSAVYYCTRSIVRRGYYFDYWGQGTALTVSS VL: DIQMTQTTSSLSASLGDRVTISCRASQDINNYVNWYQQKPDGTIKLLIYYTSRLNSGIPSRFSGSGSGTDYSLTIANLEQEDIATYFCQQDDTIPITFGAGTKVELKR
0.0582 nM | 3.07e-06 s⁻¹ | 52600 M⁻¹ s⁻¹ | Mutation 1-45 (antibody, V domains shown, Mutation 1 background; CDRs built) VH: QVQLQQPGAELVKPGASVRLSCQTSVNTFTTYYIYWVKQRPGEGLEWIGGINPTSGGPVFNEKFKSKATLTVDTSSSTAYMQLSSLTSVDSAVYYCTRSILRRGYYFDYWGQGTALTVSS VL: DIQMTQTTSSLSASLGDRVTISCRASQDINNYLNWYQQKPDGTIKLLIYYTSRLNSGVPSRFSGSGSGTDYSLTIANLEQEDIATYFCQQDDTIPLTFGAGTKVELKR
0.0507 nM | 3.06e-06 s⁻¹ | 60400 M⁻¹ s⁻¹ | Mutation 1-59 (antibody, V domains shown, Mutation 1 background; CDRs built) VH: QVQLQQPGAELVKPGASVRLSCQTSVNTFSTYYIYWVKQRPGEGLEWIGGLNPTSNPVFNEKFKSKATLTVDTSSSTAYMQLSSLTSVDSAVYYCTRSVIRRGYYFDYWGQGTALTVSS VL: DIQMTQTTSSLSASLGDRVTISCRASQDINNYINWYQQKPDGTIKLLIYYTSRLQSGLPSRFSGSGSGTDYSLTIANLEQEDIATYFCQQDDTVPLTFGAGTKVELKR
0.384 nM | 3.8e-05 s⁻¹ | 99000 M⁻¹ s⁻¹ | Mutation 1-53 (antibody, V domains shown, Mutation 1 background; CDRs built) VH: QVQLQQPGAELVKPGASVRLSCQTSVNTFSTYYIYWVKQRPGEGLEWIGGINPTSNPVFNEKFKSKATLTVDTSSSTAYMQLSSLTSVDSAVYYCTRSLIRRGYYFDYWGQGTALTVSS VL: DIQMTQTTSSLSASLGDRVTISCRASQDINNYINWYQQKPDGTIKLLIYYTSRLHSGLPSRFSGSGSGTDYSLTIANLEQEDIATYFCQQDDTLPVTFGAGTKVELKR
0.971 nM | 6.92e-05 s⁻¹ | 71200 M⁻¹ s⁻¹ | Mutation 1-43 (antibody, V domains shown, Mutation 1 background; CDRs built) VH: QVQLQQPGAELVKPGASVRLSCQTSVETFTTYYIYWVKQRPGEGLEWIGGLNPTSNPVFNEKFKSKATLTVDTSSSTAYMQLSSLTSVDSAVYYCTRSLVRRGYYFDYWGQGTALTVSS VL: DIQMTQTTSSLSASLGDRVTISCRASQDINNYVNWYQQKPDGTIKLLIYYTSRLHSGLPSRFSGSGSGTDYSLTIANLEQEDIATYFCQQDDTLPITFGAGTKVELKR
0.297 nM | 9.82e-06 s⁻¹ | 33100 M⁻¹ s⁻¹ | Mutation 1-41 (antibody, V domains shown, Mutation 1 background; CDRs built) VH: QVQLQQPGAELVKPGASVRLSCQTSVDTFTTYYIYWVKQRPGEGLEWIGGVNPTSNPVFNEKFKSKATLTVDTSSSTAYMQLSSLTSVDSAVYYCTRSVIRRGYYFDYWGQGTALTVSS VL: DIQMTQTTSSLSASLGDRVTISCRASQDINNYINWYQQKPDGTIKLLIYYTSRLNSGVPSRFSGSGSGTDYSLTIANLEQEDIATYFCQQDDTVPVTFGAGTKVELKR
0.0133 nM | 4.9e-06 s⁻¹ | 369000 M⁻¹ s⁻¹ | Mutation 1-44 (antibody, V domains shown, Mutation 1 background; CDRs built) VH: QVQLQQPGAELVKPGASVRLSCQTSVNTFSTYYIYWVKQRPGEGLEWIGGVNPTSGGPVFNEKFKSKATLTVDTSSSTAYMQLSSLTSVDSAVYYCTRSLIRRGYYFDYWGQGTALTVSS VL: DIQMTQTTSSLSASLGDRVTISCRASQDIQNYLNWYQQKPDGTIKLLIYYTSRLNSGLPSRFSGSGSGTDYSLTIANLEQEDIATYFCQQDDTLPVTFGAGTKVELKR
0.914 nM | 3.79e-05 s⁻¹ | 41500 M⁻¹ s⁻¹ | Mutation 1-56 (antibody, V domains shown, Mutation 1 background; CDRs built) VH: QVQLQQPGAELVKPGASVRLSCQTSVDTFTTYYIYWVKQRPGEGLEWIGGINPTSGGPVFNEKFKSKATLTVDTSSSTAYMQLSSLTSVDSAVYYCTRSIIRRGYYFDYWGQGTALTVSS VL: DIQMTQTTSSLSASLGDRVTISCRASQDIQNYLNWYQQKPDGTIKLLIYYTSRLNSGLPSRFSGSGSGTDYSLTIANLEQEDIATYFCQQDDTIPLTFGAGTKVELKR
